Experimental data as given in the supplement of paper PMC12067230.
± gives the uncertainty stated by the source.

B1: F-15-N; numbered along this chain (parent)
chain: EASNCFAIRHFENKFAVETLICFNLFLNSQEKHY

Variants of: B1
Experiment: amyloid nucleation score relative to WT ADan (yeast Sup35 reporter selection) (log enrichment difference); higher = more amyloid nucleation
Method: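 Deep mutational scan of the ADan peptide fused to the Sup35 nucleation domain (SupN) in S. cerevisiae [psi-pin-], covering all single amino-acid substitutions and stop truncations (truncations = sequence up to the stop). After 24 h Cu2+ induction, cells were selected on -ADE-URA plates for 7 d at 30 °C. The nucleation score is log enrichment (output/input, deep sequencing) minus that of WT ADan, as the error-weighted mean of 3 biological replicates (DiMSum).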

Point of comparison: EASNCFAIRKFENKFAVETLICFNLFLNSQEKHY, amyloid nucleation score 0.566 ± 0.18. Against it:
- EASNCFAIRHFENKNAVETLICFNLFLNSQEKHY — lower, -0.337 ± 0.14
- EASNCFAIRHFENKIAVETLICFNLFLNSQEKHY — lower, 0.203 ± 0.13
- EASNCFAIRHFENKAAVETLICFNLFLNSQEKHY — within error, 0.534 ± 0.14
- EASNCFAIRHFENKTAVETLICFNLFLNSQEKHY — lower, -0.00209 ± 0.12
- EASNCFAIRHFENKKAVETLICFNLFLNSQEKHY — lower, -1.37 ± 0.17
- EASNCFAIRHFENKLAVETLICFNLFLNSQEKHY — lower, -0.25 ± 0.085
- EASNCFAIRHFENKMAVETLICFNLFLNSQEKHY — within error, 0.405 ± 0.14
- EASNCFAIRHFENKVAVETLICFNLFLNSQEKHY — lower, 0.0927 ± 0.095
- EASNCFAIRHFENKPAVETLICFNLFLNSQEKHY — within error, 0.782 ± 0.18
- EASNCFAIRHFENKRAVETLICFNLFLNSQEKHY — lower, -2.18 ± 0.14
- EASNCFAIRHFENKYAVETLICFNLFLNSQEKHY — lower, 0.0276 ± 0.12
- EASNCFAIRHFENKSAVETLICFNLFLNSQEKHY — lower, -0.453 ± 0.099
- EASNCFAIRFFENKFAVETLICFNLFLNSQEKHY — lower, -0.478 ± 0.15
- EASNCFAIRNFENKFAVETLICFNLFLNSQEKHY — lower, -0.16 ± 0.17
- EASNCFAIRWFENKFAVETLICFNLFLNSQEKHY — lower, -0.926 ± 0.16
- EASNCFAIRTFENKFAVETLICFNLFLNSQEKHY — lower, 0.0221 ± 0.14
- EASNCFAIRPFENKFAVETLICFNLFLNSQEKHY — within error, 0.798 ± 0.18
- EASNCFAIRMFENKFAVETLICFNLFLNSQEKHY — lower, -0.511 ± 0.18
- EASNCFAIRGFENKFAVETLICFNLFLNSQEKHY — lower, 0.122 ± 0.1
- EASNCFAIRDFENKFAVETLICFNLFLNSQEKHY — within error, 0.76 ± 0.16
- EASNCFAIRSFENKFAVETLICFNLFLNSQEKHY — lower, -0.245 ± 0.1
- EASNCFAIRAFENKFAVETLICFNLFLNSQEKHY — within error, 0.402 ± 0.14
- EASNCFAIRVFENKFAVETLICFNLFLNSQEKHY — lower, 0.0906 ± 0.11
- EASNCFAIREFENKFAVETLICFNLFLNSQEKHY — within error, 0.551 ± 0.18
- EASNCFAIRYFENKFAVETLICFNLFLNSQEKHY — lower, -0.291 ± 0.15
- EASNCFAIRCFENKFAVETLICFNLFLNSQEKHY — within error, 0.429 ± 0.15
- EASNCFAIRLFENKFAVETLICFNLFLNSQEKHY — lower, -0.281 ± 0.1
- EASNCFAIRQFENKFAVETLICFNLFLNSQEKHY — lower, 0.00592 ± 0.19
- EASNCFAIRIFENKFAVETLICFNLFLNSQEKHY — lower, 0.111 ± 0.16
- EASNCFAIRRFENKFAVETLICFNLFLNSQEKHY — lower, 0.227 ± 0.1
- EASNCFAIRHFENKFEVETLICFNLFLNSQEKHY — higher, 1.02 ± 0.13
- EASNCFAIRHFENKFCVETLICFNLFLNSQEKHY — lower, 0.159 ± 0.14
- EASNCFAIRHFENKFDVETLICFNLFLNSQEKHY — within error, 0.736 ± 0.15
- EASNCFAIRHFNNKFAVETLICFNLFLNSQEKHY — lower, -0.269 ± 0.14
- EASNCFAIRHFWNKFAVETLICFNLFLNSQEKHY — lower, -2.66 ± 0.22
- EASNCFAIRHFANKFAVETLICFNLFLNSQEKHY — lower, -0.733 ± 0.12
- EASNCFAIRHFTNKFAVETLICFNLFLNSQEKHY — lower, -0.329 ± 0.15
- EASNCFAIRHFPNKFAVETLICFNLFLNSQEKHY — within error, 0.357 ± 0.16
- EASNCFAIRHFVNKFAVETLICFNLFLNSQEKHY — lower, -2.02 ± 0.12
- EASNCFAIRHFKNKFAVETLICFNLFLNSQEKHY — lower, -0.108 ± 0.15
- EASNCFAIRHFQNKFAVETLICFNLFLNSQEKHY — lower, -0.321 ± 0.18
- EASNCFAIRHFDNKFAVETLICFNLFLNSQEKHY — within error, 0.334 ± 0.13
- EASNCFAIRHFHNKFAVETLICFNLFLNSQEKHY — lower, 0.13 ± 0.16
- EASNCFAIRHFCNKFAVETLICFNLFLNSQEKHY — lower, -0.751 ± 0.14
- EASNCFAIRHFMNKFAVETLICFNLFLNSQEKHY — lower, -1.67 ± 0.21
- EASNCFAIRHFRNKFAVETLICFNLFLNSQEKHY — lower, -0.892 ± 0.097
- EASNCFAIRHFINKFAVETLICFNLFLNSQEKHY — lower, -3.73 ± 0.52
- EASNCFAIRHFFNKFAVETLICFNLFLNSQEKHY — lower, -2.21 ± 0.2
- EASNCFAIRHFSNKFAVETLICFNLFLNSQEKHY — lower, -0.259 ± 0.092
- EASNCFAIRHFLNKFAVETLICFNLFLNSQEKHY — lower, -2.5 ± 0.15
- EASNCFAIRHFGNKFAVETLICFNLFLNSQEKHY — lower, -0.627 ± 0.087
- EASNCFAIRHFYNKFAVETLICFNLFLNSQEKHY — lower, -0.651 ± 0.15
- EASNCFAIRHFENWFAVETLICFNLFLNSQEKHY — lower, 0.0928 ± 0.12
- EASNCFAIRHFENHFAVETLICFNLFLNSQEKHY — higher, 1.04 ± 0.14
- EASNCFAIRHFENPFAVETLICFNLFLNSQEKHY — lower, 0.000567 ± 0.15
- EASNCFAIRHFENTFAVETLICFNLFLNSQEKHY — within error, 0.665 ± 0.1
- EASNCFAIRHFENCFAVETLICFNLFLNSQEKHY — within error, 0.65 ± 0.11
- EASNCFAIRHFENIFAVETLICFNLFLNSQEKHY — within error, 0.391 ± 0.12
- EASNCFAIRHFENQFAVETLICFNLFLNSQEKHY — within error, 0.601 ± 0.13
- EASNCFAIRHFENAFAVETLICFNLFLNSQEKHY — lower, 0.253 ± 0.096
- EASNCFAIRHFENEFAVETLICFNLFLNSQEKHY — lower, 0.00624 ± 0.12
- EASNCFAIRHFENSFAVETLICFNLFLNSQEKHY — within error, 0.341 ± 0.075
- EASNCFAIRHFENDFAVETLICFNLFLNSQEKHY — lower, 0.152 ± 0.13
- EASNCFAIRHFENGFAVETLICFNLFLNSQEKHY — lower, -0.903 ± 0.091
- EASNCFAIRHFENRFAVETLICFNLFLNSQEKHY — lower, -0.195 ± 0.084
- EASNCFAIRHFENNFAVETLICFNLFLNSQEKHY — within error, 0.701 ± 0.12
- EASNCFAIRHFENLFAVETLICFNLFLNSQEKHY — within error, 0.488 ± 0.073
- EASNCFAIRHFENFFAVETLICFNLFLNSQEKHY — lower, 0.137 ± 0.11
- EASNCFAIRHFENMFAVETLICFNLFLNSQEKHY — within error, 0.629 ± 0.11
- EASNCFAIRHFENYFAVETLICFNLFLNSQEKHY — lower, 0.185 ± 0.11
- EASNCFAIRHFENVFAVETLICFNLFLNSQEKHY — lower, 0.207 ± 0.08
